The values below come from patent US20040073013A1 (Chugai, published 2004).

Experiment [1] addresses T1, human Integrin Associated Protein (IAP) expressed on mouse leukemia cell line L1210 (human, UniProt Q08722 19-323).
T1 construct: whole, on cells; also called human IAP; hIAP/L1210
Briefly: flow cytometry, COS7 supernatant on L1210 cells expressing human IAP, anti-FLAG detection. How it is done: Flow cytometry was performed using the culture supernatants of COS7 cells prepared in Example 6.3 (1) to measure the binding of the MABL2-scFVs and sc(Fv)₂ to human Integrin Associated Protein (IAP) antigen. The culture supernatants to be tested or a culture supernatant of COS7 cells as a control was added to 2×10⁵ cells of the mouse leukemia cell line L1210 expressing human IAP. After incubating on ice and washing, 10 μg/mL of the mouse anti-FLAG antibody (SIGMA) was added and then the cells were incubated and washed. Then, the FITC labeled anti-mouse IgG antibody (BECTON DICKINSON) was added thereto and the cells were incubated and washed again. The fluorescence intensity was measured using the FACScan apparatus (BECTON DICKINSON).
(A flow cytometer gives signals particle by particle.)

Experiment [2] has as its target T1, human Integrin Associated Protein (IAP) …. Briefly: flow cytometry, COS7 supernatant on L1210 cells expressing human IAP. How it is done:
Flow cytometry was performed using the aforementioned culture supernatant of COS7 cells to measure binding to the antigen. The culture supernatant of the COS7 cells expressing the chimera MABL-1 antibody or the COS7 cells expressing the chimera MABL-2 antibody, or human IgG antibody (SIGMA) as a control was added to 4×10⁵ cells of mouse leukemia cell line L1210 expressing human IAP and incubated on ice. After washing, the FITC-labeled anti-human IgG antibody (Cappel) was added thereto. After incubating and washing, the fluorescence intensity thereof was measured using the FACScan apparatus (BECTON DICKINSON).

Experiment [3] addresses secretion-type human IAP antigen (human, UniProt Q08722 19-142, limits assumed). Briefly: competitive ELISA on captured secretion-type human IAP; competitor biotinized MABL-2 antibody. Here is the method: The binding activity of the reconstructed single-chain Fv of antibody MABL-2 was measured based on the inhibiting activity against the binding of mouse monoclonal antibodies to the antigen.
The anti-FLAG antibody adjusted to 1 μg/ml was added to each well on 96-well plate and incubated at 37° C. for 2 hours. After washing, blocking was performed with 1% BSA-PBS. After incubating and washing at a room temperature, the culture supernatant of COS7 cells into which the secretion-type human IAP antigen gene (SEQ ID No. 26) had been introduced was diluted with PBS into twofold volume and added to each well. After incubating and washing at a room temperature, a mixture of 50 μl of the biotinized MABL-2 antibody adjusted to 100 ng/ml and 50 μl of sequentially diluted supernatant of the COS7 cells expressing the reconstructed single-chain Fv of antibody MABL-2 were added into each well. After incubating and washing at a room temperature, the alkaline phosphatase-conjugated streptoavidin (Zymed) was added into each well. After incubating and washing at a room temperature, the substrate solution (SIGMA) was added and absorbance of the reaction mixture in each well was measured at 405 nm.
(In general: ELISA stands for enzyme-linked immunosorbent assay.)

T1 sequence (Q08722 19-323): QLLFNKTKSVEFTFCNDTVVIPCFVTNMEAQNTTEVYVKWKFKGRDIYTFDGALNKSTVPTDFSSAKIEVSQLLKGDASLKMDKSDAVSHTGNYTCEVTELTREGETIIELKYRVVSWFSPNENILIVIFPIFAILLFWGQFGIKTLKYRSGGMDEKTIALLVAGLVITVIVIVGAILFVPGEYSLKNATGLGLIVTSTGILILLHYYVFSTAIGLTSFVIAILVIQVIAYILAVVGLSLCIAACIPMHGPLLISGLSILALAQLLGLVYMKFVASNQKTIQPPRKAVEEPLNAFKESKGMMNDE
Sequence of secretion-type human IAP antigen (Q08722 other isoform, or with tags, fused parts or gaps limits assumed): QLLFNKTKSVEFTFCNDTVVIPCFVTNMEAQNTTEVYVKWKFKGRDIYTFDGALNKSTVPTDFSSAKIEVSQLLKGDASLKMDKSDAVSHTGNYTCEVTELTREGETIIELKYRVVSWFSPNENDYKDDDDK

B1: antibody MABL-2 sc(Fv)2, reconstructed polypeptide comprising two H chain V regions and two L chain V regions (other)
chain: QVQLQQSGPELVKPGASVKMSCKASGYTFANHVIHWVKQKPGQGLEWIGYIYPYNDGTKYNEKFKDKATLTSDKSSTTAYMDLSSLASEDSAVYYCARGGYYTYDDWGQGTTLTVSSGGGGSGGGGSGGGGSDVVMTQSPLSLPVSLGDQASISCRSSQSLVHSNGKTYLHWYLQKPGQSPKLLIYKVSNRFSGVPDRFSGSGSVTDFTLMISRVEAEDLGVYFCSQSTHVPYTFGGGTKLEIKGGGGSGGGGSGGGGSVDSQVQLQQSGPELVKPGASVKMSCKASGYTFANHVIHWVKQKPGQGLEWIGYIYPYNDGTKYNEKFKDKATLTSDKSSTTAYMDLSSLASEDSAVYYCARGGYYTYDDWGQGTTLTVSSGGGGSGGGGSGGGGSDVVMTQSPLSLPVSLGDQASISCRSSQSLVHSNGKTYLHWYLQKPGQSPKLLIYKVSNRFSGVPDRFSGSGSVTDFTLMISRVEAEDLGVYFCSQSTHVPYTFGGGTKLEIKDYKDDDDK
notes: Single chain VH-VL-VH-VL from plasmid pCHOM2(Fv)2, with a C-terminal FLAG; Eluted at the position of the monomer in gel filtration
Regarding B1, the binding result in experiment [1] is on record as “binds”.

B2: MABL2-scFv <HL-0> (scFv)
scFv: QVQLQQSGPELVKPGASVKMSCKASGYTFANHVIHWVKQKPGQGLEWIGYIYPYNDGTKYNEKFKDKATLTSDKSSTTAYMDLSSLASEDSAVYYCARGGYYTYDDWGQGTTLTVSSDVVMTQSPLSLPVSLGDQASISCRSSQSLVHSNGKTYLHWYLQKPGQSPKLLIYKVSNRFSGVPDRFSGSGSVTDFTLMISRVEAEDLGVYFCSQSTHVPYTFGGGTKLEIKDYKDDDDK
notes: [H chain V]-[L chain V] without a linker, with a leader at the 5' end and FLAG at the C-terminus; COS7 culture supernatant; also called CF2HL-0/pCOS1
For B2, the binding result in experiment [1] is recorded as “binds”.

B3: chimera MABL-1 antibody (antibody, V domains shown)
VH: QVQLQQSGPDLVKPGASVKMSCKASGYTFVNHVMHWVKQKPGQGLEWIGYIYPYNDGTKYNEKFKGKATLTSEKSSSAAYMELSSLASEDSAVYYCARGGYYSYDDWGQGTTLTVSS
VL: DVVMTQTPLSLPVSLGDQASISCRSSQSLLHSKGNTYLQWYLQKPGQSPKLLIYKVSNRFSGVPDRFSGSGSGTDFTLKISRVEAEDLGVYFCSQSTHVPYTSGGGTKLEIK
notes: Mouse MABL-1 V regions cloned into HEF-kappa and HEF-gamma expression vectors carrying human C regions (WO92/19759); Tested as COS7 culture supernatant
Regarding B3, in experiment [2], the binding result was “binds”.

B4: chimera MABL-2 antibody (antibody, V domains shown)
VH: QVQLQQSGPELVKPGASVKMSCKASGYTFANHVIHWVKQKPGQGLEWIGYIYPYNDGTKYNEKFKDKATLTSDKSSTTAYMDLSSLASEDSAVYYCARGGYYTYDDWGQGTTLTVSS
VL: DVVMTQSPLSLPVSLGDQASISCRSSQSLVHSNGKTYLHWYLQKPGQSPKLLIYKVSNRFSGVPDRFSGSGSVTDFTLMISRVEAEDLGVYFCSQSTHVPYTFGGGTKLEIK
notes: Mouse MABL-2 V regions cloned into HEF-kappa and HEF-gamma expression vectors carrying human C regions (WO92/19759); Tested as COS7 culture supernatant
On to B4, for which the binding result in experiment [2] is listed as “binds”.

B5: MABL2-scFv <LH-0> (scFv)
scFv: DVVMTQSPLSLPVSLGDQASISCRSSQSLVHSNGKTYLHWYLQKPGQSPKLLIYKVSNRFSGVPDRFSGSGSVTDFTLMISRVEAEDLGVYFCSQSTHVPYTFGGGTKLEIKQVQLQQSGPELVKPGASVKMSCKASGYTFANHVIHWVKQKPGQGLEWIGYIYPYNDGTKYNEKFKDKATLTSDKSSTTAYMDLSSLASEDSAVYYCARGGYYTYDDWGQGTTLTVSSDYKDDDDK
notes: [L chain V]-[H chain V] without a linker, with a leader at the 5' end and FLAG at the C-terminus; COS7 culture supernatant; also called CF2LH-0/pCOS1
Take B5: the binding result in experiment [1] is “binds”.

B6: reconstructed single-chain Fv of antibody MABL-2 (MABL2-scFv), from pCHOM2-transfected COS7 cells (scFv)
scFv: QVQLQQSGPELVKPGASVKMSCKASGYTFANHVIHWVKQKPGQGLEWIGYIYPYNDGTKYNEKFKDKATLTSDKSSTTAYMDLSSLASEDSAVYYCARGGYYTYDDWGQGTTLTVSSGGGGSGGGGSGGGGSDVVMTQSPLSLPVSLGDQASISCRSSQSLVHSNGKTYLHWYLQKPGQSPKLLIYKVSNRFSGVPDRFSGSGSVTDFTLMISRVEAEDLGVYFCSQSTHVPYTFGGGTKLEIKDYKDDDDK
notes: Tested as COS7 culture supernatant; also called MABL2-scFv/COS7
In the case of B6, the binding result in experiment [3] and in experiment [1] was “binds” each time.
